For assay [1], the target named is recombinant full-length murine VDAC1 (murine) (UniProt Q60932).
For assay [2] the target is unchanged. The source holds these as a separate data set.

Chain of recombinant full-length murine VDAC1 (murine) (Q60932 14-296): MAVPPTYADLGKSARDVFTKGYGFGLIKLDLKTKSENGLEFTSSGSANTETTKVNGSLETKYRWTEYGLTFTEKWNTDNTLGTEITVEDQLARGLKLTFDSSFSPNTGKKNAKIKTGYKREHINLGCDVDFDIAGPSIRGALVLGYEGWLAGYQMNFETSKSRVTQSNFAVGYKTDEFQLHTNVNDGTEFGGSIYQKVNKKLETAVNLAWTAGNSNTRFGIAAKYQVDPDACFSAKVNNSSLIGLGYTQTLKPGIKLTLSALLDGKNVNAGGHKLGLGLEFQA

As to human mutant SOD1^G85R (enzyme), the inhibition of channel conductance of bilayer-reconstituted VDAC1 in assay [1] amounted to 40%.

Take human mutant SOD1^G93A (enzyme): the inhibition of channel conductance of bilayer-reconstituted VDAC1 in assay [1] was determined as 57%. The survival of mESC-derived SOD1^G93A-expressing motor neurons with the (1-20)-N-Ter-Antp peptide, 10 μM, 96 h in assay [2] was determined as 2 fold.

These data come from PMC6702328, “A VDAC1-Derived N-Terminal Peptide Inhibits Mutant SOD1-VDAC1 Interactions and Toxicity in the SOD1 Model of ALS” (Frontiers in Cellular Neuroscience, 2019).
